This experiment concerns the target Growth Factor Receptor-bound 2 (GRB2), endogenous in HEK cells (human (endogenous in HEK)) (UniProt P62993). The experiment can be described thus: co-IP.

Growth Factor Receptor-bound 2 (GRB2), endogenous in HEK cells (human (endogenous in HEK)), sequence (P62993 whole entry): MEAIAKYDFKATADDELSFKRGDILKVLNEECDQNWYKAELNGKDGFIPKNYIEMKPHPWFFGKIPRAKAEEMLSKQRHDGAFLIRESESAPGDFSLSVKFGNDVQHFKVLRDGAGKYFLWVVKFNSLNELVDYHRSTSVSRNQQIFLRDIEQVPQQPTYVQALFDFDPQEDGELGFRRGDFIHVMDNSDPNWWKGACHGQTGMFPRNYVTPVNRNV

Take “SWELL1^Δ91/+35 mutant, transiently expressed in HEK cells (natural protein)”: the densitometry ratio SWELL1^Δ91/+35/GRB2 in the GRB2 immunoprecipitate is 0.07.

The record behind these values is publication PMC5415409.
